Experimental data from patent US8026218.
Bridge positions count the residues as written; N and C are the ends. Square brackets hold non-standard residues; d marks the D form. Primed or numbered codes have the meaning given here. Ends that are not written are not given here. * marks the point of attachment. NMeBn(CF3)2 = C-terminal N-methyl bis(trifluoromethyl)benzyl amide; Glc = O-glucosyl on Ser side chain (Ser(OGlu)/Ser(OGlc)); NH(3,5-(CF3)2-benzyl) = FC(F)(F)c1cc(CN*)cc(C(F)(F)F)c1; OBzl(3,5-(CF3)2) = FC(F)(F)c1cc(CO*)cc(C(F)(F)F)c1; Glc″ = glucosyl on the serine side-chain oxygen; OBn(OMe)2 = C-terminal OBn(OMe)2 ester; Dmt = Cc1cc(O)cc(C)c1C[C@H](N)C(=O)O; NMe(benzyl) = CN(Cc1ccccc1)*; Nle = CCCC[C@H](N)C(=O)O; NHBn = c1ccc(CN*)cc1; OBn = c1ccc(CO*)cc1

Target: δ opioid receptor of the mouse isolated vas deferens (mouse), P32300
Assay: cell-based or functional assay

δ opioid receptor of the mouse isolated vas deferens (mouse), P32300, sequence (P32300 whole entry, stated change not applied): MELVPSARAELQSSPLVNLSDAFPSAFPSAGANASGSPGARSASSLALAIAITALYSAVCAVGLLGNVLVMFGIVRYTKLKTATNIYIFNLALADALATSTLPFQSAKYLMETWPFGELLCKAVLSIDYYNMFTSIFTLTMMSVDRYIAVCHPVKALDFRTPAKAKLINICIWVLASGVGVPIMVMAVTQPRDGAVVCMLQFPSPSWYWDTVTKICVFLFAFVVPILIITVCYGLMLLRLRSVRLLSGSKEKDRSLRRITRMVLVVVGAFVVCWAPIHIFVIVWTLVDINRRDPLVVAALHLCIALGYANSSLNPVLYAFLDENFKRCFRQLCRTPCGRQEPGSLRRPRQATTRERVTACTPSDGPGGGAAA

Binder | MVD IC50 | MVD opioid(delta) agonist IC50 | MVD (δ) opioid agonist IC50 | MVD (δ) IC50
YAGFMPLW (here or on the partner: D-Ala at 2; Met(O) at 5; C-terminal O-3,5-Bzl(CF3)2 ester) [TyrDAlaGlyPheMet(O)ProLeuTrpOBn(CF3)2] | 33 nM |  |  | 
Y[dA]GFLPLW-{OBzl(3,5-(CF3)2)} [TyrDAlaGlyPheLeuProLeuTrpOBn(CF3)2] | 101 nM |  |  | 
[Dmt][dA]GFMPLW-{OBzl(3,5-(CF3)2)} [DmtDAlaGlyPheMetProLeuTrpOBn(CF3)2 (TY033)] |  | 1.27 nM |  | 
[Dmt][dA]GFMPLW-{OBzl(3,5-(CF3)2)} [DmtDAlaGlyPheMetProLeuTrpOBn(CF3)2] | 1.3 nM |  |  | 
Y[dA]GFFPLW-{OBzl(3,5-(CF3)2)} [TyrDAlaGlyPhePheProLeuTrpOBn(CF3)2] | 905 nM |  |  | 
Y[dA]GFMPLW-{NH(3,5-(CF3)2-benzyl)} [TyrDAlaGlyPheMetProLeuTrpNHBn(CF3)2 (TY027)] |  | 14.5 nM |  | 
Y[dA]GFGPLW-{OBzl(3,5-(CF3)2)} (also: TFA salt) [TyrDAlaGlyPheGlyProLeuTrpOBn(CF3)2] | 172 nM |  |  | 
Y[dA]GFMPLW-{OBzl(3,5-(CF3)2)} [TyrDAlaGlyPheMetProLeuTrpOBn(CF3)2 (TY005)] |  | 22.3 nM |  | 
[Dmt][dA]GFMPLW-{NH(3,5-(CF3)2-benzyl)} [DmtDAlaGlyPheMetProLeuTrpNHBn(CF3)2 (TY032)] |  | 1.82 nM |  | 
Y[dC]GFMPLW-{OBzl(3,5-(CF3)2)} [TyrDCysGlyPheMetProLeuTrpOBn(CF3)2 (TY031)] |  | 235 nM |  | 
Y[dA]GFMPLW-OBn [TyrDAlaGlyPheMetProLeuTrpOBn (TY029)] |  | 7.62 nM |  | 
Y[dA]GFMPLW-{NH(3,5-(CF3)2-benzyl)} [TyrDAlaGlyPheMetProLeuTrpNHBn(CF3)2] | 14.5 nM |  |  | 
YAGFMPLW (here or on the partner: D-Ala at 2; Met(O) (oxidized methionine) at 5; C-terminal O-3,5-Bn(CF3)2 ester) [TyrDAlaGlyPheMet(O)ProLeuTrpOBn(CF3)2 (TY023)] |  | 33 nM |  | 
Y[dA]GFMPLW-{NMeBn(CF3)2} [TyrDAlaGlyPheMetProLeuTrpNMeBn(CF3)2 (TY028)] |  | 11.2 nM |  | 
Y[dA]GFLPLW-{OBzl(3,5-(CF3)2)} [TyrDAlaGlyPheLeuProLeuTrpOBn(CF3)2 (TY004)] |  | 101 nM |  | 
YAGFXPLW (here or on the partner: D-Ala at 2; Nle at 5 (written X); C-terminal O-3,5-Bzl(CF3)2 ester) [TyrDAlaGlyPheNleProLeuTrpOBn(CF3)2] | 16.8 nM |  |  | 
Y[dC]GF[dC]PLW-{NH(3,5-(CF3)2-benzyl)} (disulfide 2-5) [Tyr[DCysGlyPheDCys]ProLeuTrpNHBn(CF3)2 (TY037)] |  | 8.28 nM |  | 
Y[dA]GF[Nle]PS(Glc)W-{NH(3,5-(CF3)2-benzyl)} [TyrDAlaGlyPheNleProSer(OGlu)TrpNHBn(CF3)2] | 12.7 nM |  |  | 
Y[dA]GFFPLW-{OBzl(3,5-(CF3)2)} [TyrDAlaGlyPhePheProLeuTrpOBn(CF3)2 (TY003)] |  | 905 nM |  | 
[Dmt][dA]GFMPLW-NHBn [DmtDAlaGlyPheMetProLeuTrpNHBn] | 6.9 nM |  |  | 
H-Y[dA]GFFPLW-{OBzl(3,5-(CF3)2)} (also: TFA salt) [H-Tyr-D-Ala-Gly-Phe-Phe-Pro-Leu-Trp-O-3,5-Bzl(CF3)2] |  |  | 905 nM | 

Binder | MVD IC50 | MVD opioid(delta) agonist IC50 | MVD (δ) opioid agonist IC50 | MVD (δ) IC50
H-Y[dA]GFMPLW-{OBzl(3,5-(CF3)2)} (also: TFA salt) [H-Tyr-D-Ala-Gly-Phe-Met-Pro-Leu-Trp-O-3,5-Bzl(CF3)2] |  |  | 22.3 nM | 
Y[dA]GF[dF]PLW-{OBzl(3,5-(CF3)2)} [TyrDAlaGlyPheDPheProLeuTrpOBn(CF3)2 (TY007)] |  | 412 nM |  | 
[Dmt][dA]GFMPLW-{NH(3,5-(CF3)2-benzyl)} [DmtDAlaGlyPheMetProLeuTrpNHBn(CF3)2] | 1.8 nM |  |  | 
Y[dA]GFMPLW-{NMe(benzyl)} [TyrDAlaGlyPheMetProLeuTrpNMeBn (TY026)] |  | 7.89 nM |  | 
Y[dA]GFS(Glc)PLW-{NH(3,5-(CF3)2-benzyl)} [TyrDAlaGlyPheSer(OGlu)ProLeuTrpNHBn(CF3)2] | 109 nM |  |  | 
Y[dA]GF[dF]PLW-{OBzl(3,5-(CF3)2)} [TyrDAlaGlyPheDPheProLeuTrpOBn(CF3)2] | 412 nM |  |  | 
Y[dA]GF[Nle]S(Glc″)LW-{NH(3,5-(CF3)2-benzyl)} [TyrDAlaGlyPheNleSer(OGlu)LeuTrpNHBn(CF3)2] | 18 nM |  |  | 
YAGFXPLW (here or on the partner: D-Ala at 2; Nle at 5 (written X); C-terminal NH-3,5-Bzl(CF3)2 amide) [TyrDAlaGlyPheNleProLeuTrpNHBn(CF3)2] | 13.6 nM |  |  | 
H-Y[dA]GF[dF]PLW-{OBzl(3,5-(CF3)2)} (also: TFA salt) [H-Tyr-D-Ala-Gly-Phe-D-Phe-Pro-Leu-Trp-O-3,5-Bzl(CF3)2] |  |  | 412 nM | 
Y[dA]GFMPLW-{OBzl(3,5-(CF3)2)} [TyrDAlaGlyPheMetProLeuTrpOBn(CF3)2] | 22.3 nM |  |  | 22 nM
H-Y[dA]GFLPLW-{OBzl(3,5-(CF3)2)} (also: TFA salt) [H-Tyr-D-Ala-Gly-Phe-Leu-Pro-Leu-Trp-O-3,5-Bzl(CF3)2] |  |  | 101 nM | 
Y[dC]GF[dC]PLW-{NH(3,5-(CF3)2-benzyl)} (disulfide 2-5) [Tyr[DCysGlyPheDCys]ProLeuTrpNHBn(CF3)2] |  |  |  | 8.3 nM
Y[dC]GF[Nle]PCW-{NH(3,5-(CF3)2-benzyl)} (disulfide 2-7) [Tyr[DCysGlyPheNleProCys]TrpNHBn(CF3)2] |  |  |  | 85 nM
Y[dA]GFMPLW-{OBn(OMe)2} [TyrDAlaGlyPheMetProLeuTrpOBn(OMe)2 (TY030)] |  | 12 nM |  | 
Y[dA]GFGPLW-{OBzl(3,5-(CF3)2)} [TyrDAlaGlyPheGlyProLeuTrpOBn(CF3)2 (TY006)] |  | 172 nM |  | 
Y[dC]GF[Nle]PCW-{NH(3,5-(CF3)2-benzyl)} (disulfide 2-7) [Tyr[DCysGlyPheNleProCys]TrpNHBn(CF3)2 (TY035)] |  | 84.7 nM |  | 
H-Y[dA]GFGPLW-{OBzl(3,5-(CF3)2)} (also: TFA salt) [H-Tyr-D-Ala-Gly-Phe-Gly-Pro-Leu-Trp-O-3,5-Bzl(CF3)2] |  |  | 172 nM | 
Y[dC]GF[Nle]P[dC]W-{NH(3,5-(CF3)2-benzyl)} (disulfide 2-7) [Tyr[DCysGlyPheNleProDCys]TrpNHBn(CF3)2] |  |  |  | 19 nM
YAGFXPLW (here or on the partner: D-Ala at 2; Nle (norleucine) at 5 (X); C-terminal O-3,5-Bn(CF3)2 ester) [TyrDAlaGlyPheNleProLeuTrpOBn(CF3)2 (TY018)] |  | 16.8 nM |  | 
[Dmt][dA]GFMPLW-NHBn [DmtDAlaGlyPheMetProLeuTrpNHBn (TY034)] |  | 6.85 nM |  | 
Y[dC]GFCPLW-{NH(3,5-(CF3)2-benzyl)} (disulfide 2-5) [Tyr[DCysGlyPheCys]ProLeuTrpNHBn(CF3)2] |  |  |  | 73 nM
